In this test the target is recombinant CgDM9CP-6 (DM9 domain containing protein 6 of Crassostrea gigas), His tag (Crassostrea gigas). Nature of the test: BLI. (Biolayer interferometry detects binding as a change in optical thickness at a sensor tip.)

As to “recombinant Cg14-3-3ε (14-3-3 epsilon of Crassostrea gigas), GST tag (natural protein)”, the Kd (usually the free concentration of one partner at which half of the binding sites on the other are occupied at equilibrium, for simple one-to-one binding) is 3.81 µM.

Values taken from PMC12379375.
